In assay [1] the target is 肺炎支原体天然抗原(购自Microbix) (Mycoplasma pneumoniae). In words: indirect ELISA on coated antigen (2 ug/ml), antibody 1.37 ng/ml.
Assay [2] shares this target. In words: indirect ELISA on coated antigen (2 ug/ml), antibody 0.46 ng/ml. For orientation: ELISA stands for enzyme-linked immunosorbent assay.
Assay [3] shares this target. Briefly: indirect ELISA on coated antigen (2 ug/ml), antibody 0 ng/ml (blank well).
Assay [4] shares this target. Briefly: indirect ELISA on coated antigen (2 ug/ml), antibody 0.15 ng/ml.
The target is the same in assay [5]. In words: indirect ELISA on coated antigen (2 ug/ml), antibody 12.35 ng/ml.
Assay [6] has the same target. Briefly: indirect ELISA on coated antigen (2 ug/ml), antibody 4.12 ng/ml.

We go through seven molecules from CN116693678A.

For the molecule 对照 (antibody), the OD值 (450nm, 参考630nm) was 0.208 OD in assay [1]; 0.111 OD in assay [2]; 0.015 OD in assay [3]; 0.068 OD in assay [4]; 1.21 OD in assay [5]; 0.499 OD in assay [6].

B1: Anti-MP-11F5mut1 (antibody, mouse IgG1, kappa, V domains shown)
VH: QVQLQQSGPELVKPGALVKISCKASGYTFTSFDINWVKQRPGQGLEWIGYIYPGDGSTKYNEKFKGKATLTADKSSSTAYMQFSSLTSENSAVYFCTRKGGWGAGHSAMDYWGQGTSVTVSS
VL: DIQMTQTTSSLSASLGDRVTISCRASQAIGNYLNWYQQRPDGTVKLLIYYTSRKNSGAPSRFSGSGSGTDYSITISNLDQEDIATYFCQQGYTTPYTFGGGTKLEIKR
For B1, the OD值 (450nm, 参考630nm) stood at 0.295 OD in assay [1]; 0.201 OD in assay [2]; 0.038 OD in assay [3]; 0.156 OD in assay [4]; 1.89 OD in assay [5]; 0.815 OD in assay [6].

B2: Anti-MP-11F5mut7 (antibody, mouse IgG1, kappa, V domains shown)
VH: QVQLQQSGPELVKPGALVKISCKASGYTFTSFDINWVKQRPGQGLEWIGYIYPGDGSTKYNEKFKGKATLTADKSSSTAYMQFSSLTSENSAVYFCTRKGGWGAGHSAMDYWGQGTSVTVSS
VL: DIQMTQTTSSLSASLGDRVTISCRASQAISNYINWYQQRPDGTVKLLIYYTSRKNSGAPSRFSGSGSGTDYSLTISNIDQEDIATYFCQQGYTTPYTFGGGTKLEIKR
For the molecule B2, the OD值 (450nm, 参考630nm) amounted to 0.643 OD in assay [1]; 0.4 OD in assay [2]; 0.032 OD in assay [3]; 0.365 OD in assay [4]; 1.91 OD in assay [5]; 1.51 OD in assay [6].

B3: Anti-MP-11F5mut8 (antibody, mouse IgG1, kappa, V domains shown)
VH: QVQLQQSGPELVKPGALVKISCKASGYTFTSFDINWVKQRPGQGLEWIGYIYPGDGSTKYNEKFKGKATLTADKSSSTAYMQFSSLTSEDSAVYFCTRKGGWGAGHSAMDYWGQGTSVTVSS
VL: DIQMTQTTSSLSASLGDRVTISCRASQAISNYINWYQQRPDGTVKLLIYYTSRKNSGAPSRFSGSGSGTDYSLTISNIDQEDIATYFCQQGYTTPYTFGGGTKLEIKR
Turning to B3, the OD值 (450nm, 参考630nm) was found to be 1.27 OD in assay [1]; 0.56 OD in assay [2]; 0.034 OD in assay [3]; 0.489 OD in assay [4]; 1.93 OD in assay [5]; 1.64 OD in assay [6].

B4: Anti-MP-11F5mut4 (antibody, mouse IgG1, kappa, V domains shown)
VH: QVQLQQSGPELVKPGALVKISCKASGYTFTSFDINWVKQRPGQGLEWIGYIYPGDGSTKYNEKFKGKATLTADKSSSTAYMQFSSLTSENSAVYFCTRKGGWGAGHSAMDYWGQGTSVTVSS
VL: DIQMTQTTSSLSASLGDRVTISCRASQAISNYINWYQQRPDGTVKLLIYYTSRKNSGAPSRFSGSGSGTDYSLTISNLDQEDIATYFCQQGYTTPYTFGGGTKLEIKR
Regarding B4, the OD值 (450nm, 参考630nm) in assay [1] turned out to be 1.26 OD; in assay [2], 0.49 OD; in assay [3], 0.042 OD; in assay [4], 0.374 OD; in assay [5], 1.96 OD; in assay [6] it was 1.92 OD.

B5: Anti-MP-11F5mut5 (antibody, mouse IgG1, kappa, V domains shown)
VH: QVQLQQSGPELVKPGALVKISCKASGYTFTSFDINWVKQRPGQGLEWIGYIYPGDGSTKYNEKFKGKATLTADKSSSTAYMQFSSLTSENSAVYFCTRKGGWGAGHSAMDYWGQGTSVTVSS
VL: DIQMTQTTSSLSASLGDRVTISCRASQAISNYLNWYQQRPDGTVKLLIYYTSRKNSGAPSRFSGSGSGTDYSLTISNIDQEDIATYFCQQGYTTPYTFGGGTKLEIKR
For the molecule B5, the OD值 (450nm, 参考630nm) is 0.316 OD in assay [1]; 0.241 OD in assay [2]; 0.038 OD in assay [3]; 0.163 OD in assay [4]; 2.02 OD in assay [5]; 0.837 OD in assay [6].

B6: Anti-MP-11F5mut6 (antibody, mouse IgG1, kappa, V domains shown)
VH: QVQLQQSGPELVKPGALVKISCKASGYTFTSFDINWVKQRPGQGLEWIGYIYPGDGSTKYNEKFKGKATLTADKSSSTAYMQFSSLTSEDSAVYFCTRKGGWGAGHSAMDYWGQGTSVTVSS
VL: DIQMTQTTSSLSASLGDRVTISCRASQAISNYINWYQQRPDGTVKLLIYYTSRKNSGAPSRFSGSGSGTDYSLTISNLDQEDIATYFCQQGYTTPYTFGGGTKLEIKR
For the molecule B6, the OD值 (450nm, 参考630nm) in assay [1] turned out to be 0.445 OD; in assay [2], 0.276 OD; in assay [3], 0.063 OD; in assay [4] it was 0.174 OD; in assay [5] it was 1.92 OD; in assay [6], 0.85 OD.
